The values that follow come from patent US20060210536A1 (published 2006).

This assay has as its target STAT3 (Homo sapiens (Human), UniProt P40763 1-770). The assay can be described thus: FLAG affinity purification from transfected cell lysate, immunoblot with STAT3 antiserum. A general note: In western blotting, separated proteins are transferred to a membrane and probed.

Chain of STAT3 (P40763 whole entry): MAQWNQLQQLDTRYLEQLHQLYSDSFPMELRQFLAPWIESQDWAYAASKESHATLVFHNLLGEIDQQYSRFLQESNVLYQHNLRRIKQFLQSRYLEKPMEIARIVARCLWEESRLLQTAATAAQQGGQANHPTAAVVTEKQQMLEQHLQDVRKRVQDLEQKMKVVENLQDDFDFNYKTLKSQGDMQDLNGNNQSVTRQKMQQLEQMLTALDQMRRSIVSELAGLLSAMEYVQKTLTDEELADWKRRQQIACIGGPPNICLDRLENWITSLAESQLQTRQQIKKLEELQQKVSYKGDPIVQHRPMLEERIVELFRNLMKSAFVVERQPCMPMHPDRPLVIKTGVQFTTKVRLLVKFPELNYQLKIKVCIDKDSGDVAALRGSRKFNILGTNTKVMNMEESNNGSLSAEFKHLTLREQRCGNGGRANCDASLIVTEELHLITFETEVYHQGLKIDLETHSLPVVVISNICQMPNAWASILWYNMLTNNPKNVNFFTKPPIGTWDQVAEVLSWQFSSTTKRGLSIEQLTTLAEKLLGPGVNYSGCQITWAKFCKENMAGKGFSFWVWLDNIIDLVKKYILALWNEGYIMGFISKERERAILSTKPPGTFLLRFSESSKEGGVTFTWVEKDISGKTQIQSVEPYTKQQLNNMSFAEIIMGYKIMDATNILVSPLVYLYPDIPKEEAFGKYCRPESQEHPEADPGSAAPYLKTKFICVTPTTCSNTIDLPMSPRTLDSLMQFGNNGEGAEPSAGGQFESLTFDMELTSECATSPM

B1: FLAG-tagged SV5 V protein (other)
chain: MDPTDLSFSPDEINKLIETGLNTVEYFTSQQVTGTSSLGKNTIPPGVTGLLTNAAEAKIQESTNHQKGSVGGGAKPKKPRPKIAIVPADDKTVPGKPIPNPLLGLDSTPSTQTVLDLSGKTLPSGSYKGVKLAKFGKENLMTRFIEEPRENPIATSSPIDFKRGRDTGGFHRREYSIGWVGDEVKVTEWCNPSCSPITAAARRFECTCHQCPVTCSECERDT
notes: also called FLAG-SV5 V
On to B1, for which the binding result is “no binding”.
